The values below come from PMC4812251.

Substrate in the series: CC(=O)O
As to the kind of experiment: purified protein. Particulars: ATP 10 mM, CoA 0.1 mM, MgCl2 5 mM, acetate salt 2.5-80 mM.

B1: DtACS (Dunaliella tertiolecta) (protein)
chain: MKCSALPAGSRPQALATHTSMQAPLLLRSLAPSVPKLAQPAGTPLVHSSLPCYRKSRSCSHLASASSTAPGSTTMKPQPLLTNFIQSKEEYDALYARSIADPASFWGDVAEQFHWEKKWDPDHHSFNFDVTKGPINVEWFKGGFTNICYNALDRHVMTGHGNQHCMLFEGNEPGSDGAMTYTQVLDEVCRLANWMKAQGIGKGDCVAIYMPMVMQLPIAMLACARIGAVHSVVFGGFSADALAGRMEDCKARVLLTCNGGMRATKKIELKQIADQAIEMCASRGHTVDSVLVFANHKDGVAGAEAAGTPFTQGRDAWWQPTLAEFPALCDVAWVPAEHPLFLLYTSGSTGKPKGVLHTTGGYMVYAATTTKHAFQLQPGDVFWCTADCGWITGHSYLAYGPLLNRAVSVVFEGVPTHPTPARSWEIIDKYQVKQFYTAPTALRSLMRSGDEWLSSTSRQSLQVLGTVGEPINPEAWHWFHDLVGNGRCPVVDTWWQTETGGHMILPLPRAWPAKPGSATLPFFGVEPVILDDKGVELQGECEGLLMMRRPWPSTLRSVYGDHKRYEENYFGPYPGYYFTGDGARRDKDGYYWITGRVDDVINVSGHRIGTAEVESAIAAHHDCAEAAVAGYEHPVKGQGIYAFVVLKEGVVPNDQLKKEMWTNVRTTIGAFAAPDVIHWAPGLPKTRSGKIMRRVLRKIAGGQENELGDTSTLADPSIVRQLIETRN
What is called Km is the concentration of substrate that gives half-maximal velocity. Regarding B1, the Km (Tris-Cl pH 8.0, 37 °C (general assay)) is recorded as 3.59 mM and the Km (Tris-Cl pH 8.0, 37 °C (general assay; mix lists 10 mM potassium acetate as substrate)) is 4.66 mM.
